Consider one substance from paper PMC5714288.

This experiment addresses pyruvate kinase isoform M2 (PKM2) (human (endogenous in U1 and U937)) (UniProt P14618). As to the kind of experiment: native gel or EMSA.

pyruvate kinase isoform M2 (PKM2), P14618 1-531 (natural protein; other documents disagree on this pair), sequence (P14618 whole entry, canonical isoform): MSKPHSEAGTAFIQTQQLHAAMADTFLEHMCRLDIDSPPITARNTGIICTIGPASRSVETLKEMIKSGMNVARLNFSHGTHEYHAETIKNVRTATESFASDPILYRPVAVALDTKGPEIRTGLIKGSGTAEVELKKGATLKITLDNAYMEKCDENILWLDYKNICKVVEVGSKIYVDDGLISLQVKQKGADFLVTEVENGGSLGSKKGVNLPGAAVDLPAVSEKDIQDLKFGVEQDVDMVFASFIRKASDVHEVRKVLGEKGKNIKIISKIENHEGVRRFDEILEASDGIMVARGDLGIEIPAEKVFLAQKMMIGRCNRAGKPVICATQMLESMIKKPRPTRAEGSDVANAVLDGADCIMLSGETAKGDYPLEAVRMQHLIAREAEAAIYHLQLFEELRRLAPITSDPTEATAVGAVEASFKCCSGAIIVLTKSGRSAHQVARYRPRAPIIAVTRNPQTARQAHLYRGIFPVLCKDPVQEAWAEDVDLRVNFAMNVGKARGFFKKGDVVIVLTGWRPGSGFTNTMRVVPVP

The term stoichiometry N denotes the number of molecules, sites or subunits per partner or assembly. Regarding “pyruvate kinase isoform M2 (PKM2), P14618 1-531 (natural protein; other documents disagree on this pair)”, the stoichiometry N came out at 2.
